# Measurements published in article PMC6669743.
# Molecular target: HAdV-5T* virion (mutant HAdV-5 unable to bind to human or murine FX) (human adenovirus 5) (UniProt P04133)
# Assay: co-sedimentation; 2 x 10^11 vp of virus incubated with 250 uL C57BL/6 mouse serum for 30 min at 37 C; virions and bound proteins purified by CsCl gradient ultracentrifugation without cross-linking; LC-MS/MS with label-free quantification normalised to hexon
row,Substance,fold change of bound amount against HAdV-5 [fold]
1,complement component C3 (mouse) (from UniProt P01027) (natural protein),40.2
2,complement component C4b (mouse) (from UniProt P01029) (natural protein),87.8
